Patent US20240261333A1 (published 2024)

Legend:
DDX1 = target: T1, DDX1 (human, UniProt Q92499 1-740); assay: co-IP with anti-FLAG, C-FLAG B3GNT2, mass spectrometry
T1 construct: also called NP_004930.1
T1 sequence (looked up): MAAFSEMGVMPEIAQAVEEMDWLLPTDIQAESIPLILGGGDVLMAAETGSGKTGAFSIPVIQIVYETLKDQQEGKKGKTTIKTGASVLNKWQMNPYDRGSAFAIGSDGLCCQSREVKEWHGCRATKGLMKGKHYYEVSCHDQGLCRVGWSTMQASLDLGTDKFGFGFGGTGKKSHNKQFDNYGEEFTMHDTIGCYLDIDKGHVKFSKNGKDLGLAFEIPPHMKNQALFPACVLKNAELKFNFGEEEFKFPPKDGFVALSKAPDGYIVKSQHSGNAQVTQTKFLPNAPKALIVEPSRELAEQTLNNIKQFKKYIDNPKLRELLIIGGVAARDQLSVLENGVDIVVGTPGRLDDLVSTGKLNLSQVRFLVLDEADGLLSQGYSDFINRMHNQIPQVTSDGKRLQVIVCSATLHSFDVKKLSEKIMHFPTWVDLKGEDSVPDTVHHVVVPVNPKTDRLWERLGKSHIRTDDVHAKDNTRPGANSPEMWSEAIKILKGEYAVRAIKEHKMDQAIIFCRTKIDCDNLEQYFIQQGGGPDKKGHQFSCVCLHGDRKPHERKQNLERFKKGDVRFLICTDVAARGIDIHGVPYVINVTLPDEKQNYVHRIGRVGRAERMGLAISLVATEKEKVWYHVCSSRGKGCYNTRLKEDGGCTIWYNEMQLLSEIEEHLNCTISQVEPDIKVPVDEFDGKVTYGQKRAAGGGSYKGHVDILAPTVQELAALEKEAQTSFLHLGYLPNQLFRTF

MMS19 = target: T2, MMS19 (human, UniProt Q96T76-9 2-987, limits assumed); assay: as above
T2 construct: also called NP_001276332.1 (+9)
T2 sequence (looked up): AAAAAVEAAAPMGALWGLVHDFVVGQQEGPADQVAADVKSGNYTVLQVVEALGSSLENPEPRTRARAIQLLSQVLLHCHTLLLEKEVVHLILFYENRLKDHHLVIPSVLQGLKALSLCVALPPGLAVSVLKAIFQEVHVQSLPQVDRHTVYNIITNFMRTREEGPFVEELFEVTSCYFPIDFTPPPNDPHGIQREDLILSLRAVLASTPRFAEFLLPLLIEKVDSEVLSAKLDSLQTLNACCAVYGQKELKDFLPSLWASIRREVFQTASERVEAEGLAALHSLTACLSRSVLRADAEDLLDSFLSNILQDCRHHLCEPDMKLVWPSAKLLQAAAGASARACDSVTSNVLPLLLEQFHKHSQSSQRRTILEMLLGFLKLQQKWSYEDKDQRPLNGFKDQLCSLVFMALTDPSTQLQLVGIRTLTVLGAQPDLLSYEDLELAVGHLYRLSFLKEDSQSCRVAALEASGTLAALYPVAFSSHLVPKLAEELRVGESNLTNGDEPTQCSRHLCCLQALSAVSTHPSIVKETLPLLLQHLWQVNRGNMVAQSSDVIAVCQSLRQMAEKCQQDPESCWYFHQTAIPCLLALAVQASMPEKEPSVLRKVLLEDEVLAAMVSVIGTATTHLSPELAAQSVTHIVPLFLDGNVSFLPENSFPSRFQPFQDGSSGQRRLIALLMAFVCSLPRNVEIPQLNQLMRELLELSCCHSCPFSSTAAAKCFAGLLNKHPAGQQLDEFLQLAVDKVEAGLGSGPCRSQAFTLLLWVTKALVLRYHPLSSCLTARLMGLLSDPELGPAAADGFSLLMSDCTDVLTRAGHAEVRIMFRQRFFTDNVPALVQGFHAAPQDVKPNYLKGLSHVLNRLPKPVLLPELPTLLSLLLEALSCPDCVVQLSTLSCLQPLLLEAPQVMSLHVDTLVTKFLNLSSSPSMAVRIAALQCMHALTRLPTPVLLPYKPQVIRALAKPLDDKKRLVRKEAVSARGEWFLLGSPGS

B1: C-terminal FLAG tagged B3GNT2 (enzyme, human, UniProt Q9NY97 1-397, looked up)
chain: MSVGRRRIKLLGILMMANVFIYFIMEVSKSSSQEKNGKGEVIIPKEKFWKISTPPEAYWNREQEKLNRQYNPILSMLTNQTGEAGRLSNISHLNYCEPDLRVTSVVTGFNNLPDRFKDFLLYLRCRNYSLLIDQPDKCAKKPFLLLAIKSLTPHFARRQAIRESWGQESNAGNQTVVRVFLLGQTPPEDNHPDLSDMLKFESEKHQDILMWNYRDTFFNLSLKEVLFLRWVSTSCPDTEFVFKGDDDVFVNTHHILNYLNSLSKTKAKDLFIGDVIHNAGPHRDKKLKYYIPEVVYSGLYPPYAGGGGFLYSGHLALRLYHITDQVHLYPIDDVYTGMCLQKLGLVPEKHKGFRTFDIEEKNKNNICSYVDLMLVHSRKPQEMIDIWSQLQSAHLKC
notes: FLAG-tagged ORF overexpressed in cells; pulled down from lysate with mouse anti-FLAG; also called C-FLAG B3GNT2; C-term flag; not shown: C-terminal FLAG tag
co-IP mass spectrometry count (DDX1): 4

B2: C-terminal FLAG tagged B3GNT2 (enzyme, human, UniProt Q9NY97 1-397, looked up)
chain: MSVGRRRIKLLGILMMANVFIYFIMEVSKSSSQEKNGKGEVIIPKEKFWKISTPPEAYWNREQEKLNRQYNPILSMLTNQTGEAGRLSNISHLNYCEPDLRVTSVVTGFNNLPDRFKDFLLYLRCRNYSLLIDQPDKCAKKPFLLLAIKSLTPHFARRQAIRESWGQESNAGNQTVVRVFLLGQTPPEDNHPDLSDMLKFESEKHQDILMWNYRDTFFNLSLKEVLFLRWVSTSCPDTEFVFKGDDDVFVNTHHILNYLNSLSKTKAKDLFIGDVIHNAGPHRDKKLKYYIPEVVYSGLYPPYAGGGGFLYSGHLALRLYHITDQVHLYPIDDVYTGMCLQKLGLVPEKHKGFRTFDIEEKNKNNICSYVDLMLVHSRKPQEMIDIWSQLQSAHLKC
notes: FLAG-tagged ORF overexpressed in A375 cells; pulled down from the lysate with mouse anti-FLAG; also called C-FLAG B3GNT2; C-term flag; not shown: C-terminal FLAG tag
co-IP/MS count, C-term flag (MMS19): 0
